This data set can be described thus: yeast display, Sf9 membrane polyspecificity reagent, FACS + sequencing; frameworks hold sequencing errors. The gist of the method:
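Nanobodies came from a synthetic yeast display library in Saccharomyces cerevisiae BJ5465, induced with galactose for 36–48 hours and stained for 1 hour at 4 °C with 10% biotinylated, detergent-solubilized Sf9 membrane reagent. Cells were enriched on streptavidin microbeads and then FACS-sorted, with low and high (top ~1%) gates set on anti-HA fluorescence for expression and streptavidin fluorescence for reagent binding. Each polyreactivity label reflects the gate a clone came from. Genes were amplified by colony PCR, sequenced by MiSeq 2 × 250 and filtered by CDR length.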
In the case of “QVQLVESGGGLVQAGGSLRISCAASGSTFASTALGRYRLAAGKEMELVASISGSGGSTFYADSVKGRFTISRDNAKNTVYLQMNSLKPEDTEVYYCAAYKEPYYEEYGYGGQGTQVTVSS”, the “polyreactivity (PSR sort gate)” value is listed as “low polyreactivity”.

Take “QVQLVESGGGLVKAGGSLRLSCAASGSIFRYYAMGWYRQAPGKERELVASITNGGSTNYADSVKGRFTISRDNAKNTVYLQMNSLKPEDTAVYYCAARYLYYTPPPRRYYYWAQGTQVTVSS”: the “polyreactivity (PSR sort gate)” value was “high polyreactivity”.

Take “QVQLVESGGGLVQAGGSLRLRCASSGGIFYLNAMGWYRQAPGKERELVAAITGTGGNTYYADSVKGRFTISRDNAKNTVYLQMNSLKPEDTGVYYCNVSSRRLRGLDYWGQGTQVSVSS”: the “polyreactivity (PSR sort gate)” value is reported as “low polyreactivity”.

“QVQLVESGGGLVQAGGSLRLSCAASGRILRGYVMGWSRQAPGKERELVATITGRGGSTYYADSVKGRFTISRDNAKNTVYLQMNSLKPEDTAVYYCNKDGYPYFGRSEYWGQGTQVTVSS”: the “polyreactivity (PSR sort gate)” value was “low polyreactivity”.

“QVQLVESGGGLVQAGGSLRLSCAASGSIFIRYAMGWYRQAPGKERELVASISRSGGSTYYADSVKGRFTISRDNAKNTVYLQMNSLKPEDTAVYYCAARRVRPNGYTSSPLDYWGQGTQVTVSS”: the “polyreactivity (PSR sort gate)” value is given as “high polyreactivity”.

With “QVQLVESGGGLVQAGGSLRLSCAASGRTFYLNAMGWYRQAPGKVRELVAAIRFSGGSTYYADSVKGRFTISRDNAKNTVYLQMNSLKPEDTAVYYCNAGPYHSLYPTVSEYGYWGQGTQVTVSS”, the “polyreactivity (PSR sort gate)” value is on record as “low polyreactivity”.

With “QVQLVESGGGLVQAGGSLRLSCAASGRTFYANTMGRYRQAPGTERELVAGITSGGSTSYADSVKGRFTISRDNAKNTVYLQMNSLKPEDTAVYYCAAQFYRYTATGYYADGYWGQGTQVTVSS”, the “polyreactivity (PSR sort gate)” value was “low polyreactivity”.

As for “QVQLVESGGGLVQAGGSLRLSCAASGFIFSSYAMGWYRQAPGKERELVARISLSGGSTFYADSVKGRFTISRDNAKNTVYLQMNSLKPEDTAVYYCAARDFSTHFSPMDYWGQGPQVTVSS”, the “polyreactivity (PSR sort gate)” value was “low polyreactivity”.

As for “QVQLVESGGGLVQAGGSLRLSCAASGRTFGFYAMGWYRQAPGKERELVASITWRRGRTYYADSVKGRFTISRDNAKNTLYLQMNSLNPEDTAVYYCAAVTFSYDGYDYWGQGTQVTVSS”, the “polyreactivity (PSR sort gate)” value is on record as “low polyreactivity”.

In the case of “QVQLVESGGGLVQAGGSLRLSCPASGSTFYYYAMGWYRQAPGKERELVASISDDGSTNYADSVKGRFTISRDNAKNTVYLQMNSLKPEDTAVYYCAAVWWHQFGSAWYQMGYWGQGTQVTVSS”, the “polyreactivity (PSR sort gate)” value is given as “low polyreactivity”.

For “QVQLVESGGGLVQAGGSLRLSSAASGSIFKYNAMGWYRQAPGEERELVAAIRWSGGSTYYADSVKGRFTISRDNAKNTVYLQMNSLKPEDTAVYYCAAEYFNQNTRQGYDYWGQGSQVTVSS”, the “polyreactivity (PSR sort gate)” value is given as “low polyreactivity”.

As for “QVQLQESGGGLVQAGGSLRLSCAASGSIFHLHIMSWYRHAPGKERESVAAISYGTSTYYADSVKCRFTICRDNAKNTVYLQINIPKPDDTAVYYCAALFLVSKHHHYWGEGTQVTVSS”, the “polyreactivity (PSR sort gate)” value is “low polyreactivity”.

As for “QVQLVESGGGLVQAGGSLRLSCAASGRIFFNYAMGWYRQAPGKQRELDAAITTNGGSTYYAVSVKGRFTISRDNAKNTVYLLMNSLKPEDTAVYYCNTRRKNFVKSSQVEYWGQGTQVTVSS”, the “polyreactivity (PSR sort gate)” value is on record as “high polyreactivity”.

Consider “QVQLVESGGGLVQAGGSLRLSCAPSGRIFQANAMGWYRQAPGKERELVASISSGVSTNYADYVKGRFTISRDNAKNTVYLQMNSQKQEDTGVYYCADSDPSSAYWVGYYWYDNWGQGTQVTVSS”, for which the “polyreactivity (PSR sort gate)” value was “low polyreactivity”.

Take “QVQLVESGGGLVQAGGCLRLSCAASGSTFRYYAMGWYRQAPGKERELVAAIYGGGTTYYADSVKGRFTISRDNAKNTVYLQLNSLKPEDTAVYYCAASILFSYYGRDDYWGQGTQVTVSS”: the “polyreactivity (PSR sort gate)” value is “low polyreactivity”.

In the case of “QVQLVESGGGLVQAGGSLRLSCAASGSTFTIYAMGGYRQAPGKERELVAAITRGGSTNYADSVKGRFTISRDNAKNTVYLQMNSLKPEDTAVYYCNKVVPGYSAAKYDYWGQGTQVTVSS”, the “polyreactivity (PSR sort gate)” value is on record as “high polyreactivity”.

For the sequence “QVQHVESGGGLVQAGGSLLLSCAASGSIFYLYAMGWYRQEPGKERELVATMSSSGGSTYYADSVKGRFTISRDNAKNTVYLQMNSLKPEDTAVYYCNADYIYYGTTYEYWGQGTQVTVSS”, the “polyreactivity (PSR sort gate)” value was “low polyreactivity”.

As for “QVQLVESGGGLVQAGGSLRLSCAASGRTFGVYAMGWYRQAPGKERELVAGIRWRGGSTYYADSVKGRFTISRDNAKNTVYLQMNSLKPEDTAVYYCAADVYLVKYDYWGQCTQVTVSS”, the “polyreactivity (PSR sort gate)” value is given as “low polyreactivity”.

On to “QVQLVESGGGLVQAGGSLRLSCAASGGTFMYYDMGWYRQAPGKERELVAAISSGSSTYYADSVKGRFTISRDNAKNTVYLQMNRLKQEDTAVYYCAKLHYAHYWGQGTQVTVSS”, for which the “polyreactivity (PSR sort gate)” value is reported as “low polyreactivity”.

For “QVQLVESGGGLVQAGGSLRLICAASGSIFWGYAIGWFRPAPGKERELVAGITATGGSTYYADSVKGRFTISRDNAKNTVYLPMNSLKPEDTAVYYCAAEHGRLATYTWWVIYDYWGHGTQVTVSS”, the “polyreactivity (PSR sort gate)” value is given as “low polyreactivity”.

Turning to “QVQLVESGGGLVQAGGSLRLSCAASGNTFVKYTMGWYRQAPGKERELVAAITWSGGSTSYADSVKGRFTLSRDNAKNTVYLQMNSLKPEDTAVYYCAAAWSHSRWDTHDYWGQGTQVTVSS”, the “polyreactivity (PSR sort gate)” value is reported as “low polyreactivity”.

As for “QVQLVESGGGLGQAGGSLRLSCAASGSIFPAYAMGCYRQAPGKERELVAAITFSGGSTYYADSVKGRFTISRDNAKNTVYLQMNSLKPEDTAVYYCATDSYGWRFNRAITSYGGDYWGQGTQVTVSS”, the “polyreactivity (PSR sort gate)” value is on record as “low polyreactivity”.

On to “QDQLVESVGGLVQAGGSLRLSCAASGSTIVRNAMGWYRQPPGKERELVAAISVDSGSTYYADSVKGRFTISRDNAKNTVYLQMNSLKPEDTAVYYCAADGTRGQEYDYWGQGTLVTVSS”, for which the “polyreactivity (PSR sort gate)” value is recorded as “low polyreactivity”.

Take “QVQLVESGGGLVQAGGSLRLICAVSGHIFGSNAMGWYRQAPGKERELVAAIRSSGGSTYYADSVKGRFTISRDYAKNTVYLQMNSLKPEDTAVYYCAVETLTSTSLTRMDYWGQGTQVTVSS”: the “polyreactivity (PSR sort gate)” value is “low polyreactivity”.

On to “QFQLVESGGGLVQAGGSLRLSCAASGRIFYRNAMGWYRQAPGKERELVAAINQTGGSTYYADSVKGRFTISGDNAKNTVYLQMNSLKPDDTAVYYCAVLGQVPTGSSRRYYWGQGTQVTVSS”, for which the “polyreactivity (PSR sort gate)” value was “high polyreactivity”.

As for “QVQLVESGGGLVQAGGSLRLSCAASGRIFRGYAMGWYRQAPGKERELVAAIDTDTGITYYADSVKGRFTISRDNAKNTVYLQMNSLKPEDTAVYYCAAETYYAVSTGYDFDYWGQGTQVTVSS”, the “polyreactivity (PSR sort gate)” value is listed as “high polyreactivity”.

For “QVQLVESGGGLVQAGGSLRLSCAASGRTLNNNAMGWYRQAPGKERELVAAISRSGGRTYYADSVKGRFTISRDNAKNTVYLQMNSLKPEDTAVYYCAAVNIRFGYADRFYYVYRGDEWGQGTQVTVSS”, the “polyreactivity (PSR sort gate)” value was “high polyreactivity”.

In the case of “QVQHVESGGGLVQAGGSLRLSCSASGRTFSSYVMGWYRQAPGKERELVATITSGGITYYADSVKGRFTISRDNAKNTVYLQMNSLKPEDTAVYYCARAPPGDRFVRYDYWGQGTQVTVSS”, the “polyreactivity (PSR sort gate)” value was “high polyreactivity”.

For the sequence “QVQLVESGGGLVQAGGRLRLSCAPSGLIFYGYAMGWYRQAPGKERELVAAISGSGGRTYYADSVKGRYTISRDNAKNTVYLEMNSLKPEDSAVYYCAGKVPRFGAPGVNYWGQGTQVTVSS”, the “polyreactivity (PSR sort gate)” value is given as “high polyreactivity”.

As for “QVQLVESGGGLVQAGGSLRLSCAASGFIFYYYAMGWYRQAPGKERELVAAISWSGARTYYADSVKGRFTISRDNAKNTVYLQMNSLKPEDTAVYYCNAVAFYPRSSRSWRLDYWGQGTQVTVSS”, the “polyreactivity (PSR sort gate)” value is “high polyreactivity”.

In the case of “HVQLQESGGGLVQARGSLRLSCAATGSIFYRLKMGWHRQAPGKERELVATIDPGSNTYYADSVKGSFTISRDNAKKTVYPQMYSLKPEDTAVYYCAVSAHWTIHYYYWGEGTQVTVSS”, the “polyreactivity (PSR sort gate)” value was “high polyreactivity”.

On to “QVQLVESGGGLDQAGGSLRLSCAASGFTFRHNTMGGYRQAPGKEREMVAAISIGGRTYYADSVKGRFTISRDNAKNTVYLQMNSLKPEDTAVYYCAKLSRGQSPGYDYWGQGTQVTVSS”, for which the “polyreactivity (PSR sort gate)” value is “high polyreactivity”.

Consider “KVQLVESGGGLVQAGGSLRLSCAASGFIFYRNTMGWYRQAPGKEREFVAAIRWRGGSTYYADSVKGRFTISRDNAKNTVYLQMNSLKPEDTAVYYCAADTRPGYSGFEYWGQGTQVTVSS”, for which the “polyreactivity (PSR sort gate)” value is on record as “high polyreactivity”.

In the case of “QVQLVESGGGLVQAGGSLRLSWAASGRIPYNAMGWYRQAPGKERELVAAISRSGTRTYYADSVKGRFTISRDNAKNTVFFQMNSLKPEDTAVYYCAAEYTRSFYIYYRFGYWVQGTQVTVSS”, the “polyreactivity (PSR sort gate)” value is reported as “high polyreactivity”.

Regarding “QVQLVESGGGLVQAGGSLRISCAASGSTLRSNAMGWYRQAPGKERELVASISSGGSTSYADSVKGRFPISRDNAKNTVYFQMNSLKPEDTAVLYCAADGTLTLYRYILDYWGQGTQVTVSS”, the “polyreactivity (PSR sort gate)” value is on record as “low polyreactivity”.

Regarding “QVQLVESGGGLVQAGGSLRLSCAASGSTFLHYAMGWYRQAPGKERELVAAISFSGVRTYYADSVKGRFTISRDNAKNTVYLQLNSLKPEDNAVYYCDADGHHADYDYLGQGTQVTVSS”, the “polyreactivity (PSR sort gate)” value is given as “low polyreactivity”.

Regarding “QVQLVESGGGLVQAGGSLRLSCAACGSIFVRNTMGWDRQAPGKERELVASIDWSGGITSYADSVKGRFTISRDNAKNTVYLQMNIRKPEDTAVYFCNAVFLYPFNVPTMEYWGQGTQVTVSS”, the “polyreactivity (PSR sort gate)” value was “low polyreactivity”.

On to “QVQLLESGGGLVQAGGSLRLSCAASGLTYAYNTMGWYRQAPGKERELVADISWSGGRTYYADSVKGRFTISRDNAKNTVYLQMNSLKPEDTAVYYCAAEFWHQYGAYDYWGQGTQVTVSS”, for which the “polyreactivity (PSR sort gate)” value is reported as “low polyreactivity”.

As to “QVQLVDSGGGLVQAGGSLRLSCAASGSIFYVNAMGWYRQAPGKERELVASITQSGGSTYYADSVKRRFTISRDNAKNTVDLQMNILKPEDTSVYYCNADIHVYPTRTRYYYWGQGTQVTVSS”, the “polyreactivity (PSR sort gate)” value was “low polyreactivity”.

Turning to “QVQLVESGGGLVQAGGSLRLSCAASGRTSDGYAMGWYRQAPGKERELVAGITEGGGDTYYADSVKGRFTISRDNAKNTVYLQMNSLKPEDTAVYYCNAVEGSRLPYDYWGQGTQVTVSS”, the “polyreactivity (PSR sort gate)” value is “low polyreactivity”.

Take “QVQLVESGGGLVQAGGSHRLSCAASGSTFRYYPMGWYRQAPGKERELVARITSRAGRTYYADSVKGRFTISRDNAKNTVYLQMNSVKPEDTAVYYCNANRFRRYDWGQGTQVTVSS”: the “polyreactivity (PSR sort gate)” value is “high polyreactivity”.

For the origin of these results see the nanobody polyreactivity screen of Harvey et al. (2022).
